Reference: the supplement of paper PMC12764529
± gives the half width of the 95% confidence interval.

Assays:
[1] = folding stability dG unfold (combined trypsin and chymotrypsin); higher = more stable
Outline: (§1)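 Designed mini-proteins (under 80 residues, no cysteine) in a PA-tagged cDNA display construct were digested with trypsin and chymotrypsin. Each protease was used at 11 concentrations (threefold dilutions) plus a no-protease condition, followed by sequencing. K50 was inferred by Bayesian fitting of sequencing counts, and unfolding free energy was derived against a sequence-predicted unfolded-state K50 and a shared folded-state K50, per protease or combined. Only designs with AlphaFold2 dimer inter-PAE above 15 were kept.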

[2] = folding stability dG unfold from chymotrypsin proteolysis; higher = more stable
Outline: as §1

[3] = folding stability dG unfold from trypsin proteolysis; higher = more stable
Outline: as §1

Sequence	folding stability dG unfold [1] [kcal/mol]	folding stability dG unfold [2] [kcal/mol]	folding stability dG unfold [3] [kcal/mol]
SAVPLELPLSDEELRELLEKHSVDSTITLTLKVGDRWVRVTVTLKEVKREPNRLSVSVELTVTPLPPEESAG [r14_335_JUSTAS]	3.81 ± 0.13	4.08 ± 0.051	2.86 ± 0.07
SAVPLSEEELEALLEEKAKEKAEEILKENPELPPGAVIKIKVEYEQEVVLEDKVEPVKYEREVEYKVPLSAG [r14_486_JUSTAS]	-0.0614 ± 0.44	-0.503 ± 0.76	0.00158 ± 0.12
SAVVLKEPGPVTTVVTTDPATGVTTTVTTDPSAGTTTVTTTDPASAAVTTTTYTTLPDGTPVPTTTTTPASA [r9_1073_JUSTAS]	1.05 ± 0.038	0.86 ± 0.032	1.22 ± 0.031
SAWIPAKEIAKYLAKELQEKMPHPGMKIPVDVETNPEENYVRVDIDIEHPGDGGKWKFEIYIPPGDTIVSAG [r14_849_TrROS]	1.29 ± 0.12	1.8 ± 0.095	0.664 ± 0.038
SAWNFKIEEVEVDPNDGRIWFTVKIPPNNPELAEEIAEELQDYGIKVKLINPDLPPGQTIIVQIEVKDPSAG [r14_354_TrROS]	1.83 ± 0.18	2.09 ± 0.18	1.3 ± 0.096
SAWYIIKIEIYNPGQNEPIASHTFMVPEEDLDAFKEKIADQFGMNPGWQIKVEIQPIPPVRDKDGEWKWSAG [r14_297_TrROS]	1.91 ± 0.086	2.13 ± 0.077	1.54 ± 0.036
SAYKITIKITITDPVTGETTTITVELISSEEEAKKEAEKLAASYPGKKVTIDLVEVVPVPPLSEEELKLSSA [r9_421_JUSTAS]	2.43 ± 0.12	2.68 ± 0.054	1.91 ± 0.081
SDALKNIPFEIVEIDPPPPDRPIPAGGTVRITVYNPLTPGQPFTFDVRFIPGEGTLIAEIGGLPVEIPIGSA [r9_243_TrMRF]	2.94 ± 0.12	3.46 ± 0.082	2.53 ± 0.079
SDEDLEILRVEATPDTIRILFKIPSNPDLYIEVPITVFEDETSRRILINARILRPETGEVIAEIPFEIPLSA [r9_18_TrMRF]	3.78 ± 0.24	4.24 ± 0.13	3.53 ± 0.16
SDKVEIWIPIPDGFWVRIKYDKPGKREITIWMPEDNPEFRKHGSMDQFIKHLARKLGLDPDKVKVDMYPMSA [r9_401_TrROS]	3.69 ± 0.14	4.11 ± 0.098	3.13 ± 0.1
SDLDPNSTLVFSAPFPVSDPDALLEHAETVARELGPDVRVERVVFDPNTPNVAVVEVSVPGGTVTLVYSRSA [r9_1079_TrMRF]	1.33 ± 0.062	1.36 ± 0.061	1.24 ± 0.017
SDNFQPDMTFPVTEIGDDKVTMKYNGKPYYIPTSKITSPNVTVKITDGTVSEVSSPSPSPLPPENIKKLSSA [r9_842_JUSTAS]	-0.263 ± 0.42	-0.293 ± 0.35	-0.705 ± 0.24
SDPDAKLLPATFTFRDPLTGEEVTVEVTVYETSGYLLAPAKVTVTLPTKPRTLTATLLVDENGNVHLFVSSA [r9_1015_TrMRF]	3.73 ± 0.17	4.31 ± 0.08	2.82 ± 0.2
SDPILEILKDAFQEFGIPVQVSIEPDPDGKRVIPIRIMSPKDMDENGMKMQEQTFPIKVNGKKWRVEISWSA [r9_489_TrROS]	1.41 ± 0.11	1.31 ± 0.14	1.45 ± 0.084
SDPNKPWTAEEIAKIIEEKILEEFDVEEIIPKELKVFPKEGTVKVKMLVKYKGEPGKYFELEVEISPEELSA [r9_1002_TrMRF]	2.52 ± 0.081	2.9 ± 0.038	1.58 ± 0.037
SDWHYIQIPFEITFKAPPEQARQFVEDLAENLGITDINVDNIEYDPNNGEVKVKVSISIMIPPPPPPEDDSA [r9_918_TrROS]	2.73 ± 0.2	3.36 ± 0.12	2.36 ± 0.15
SDYYIINIKIEVYYDGKPVREIPIFILVPPEQALMIAETIAEMLPGYKVKIKINVYRIPEDDPELREAFGSA [r9_782_TrROS]	2.93 ± 0.18	3.26 ± 0.044	2.31 ± 0.077
SEAEEAARKLAEELGLEVEVVEVDEETGTVTVRVRFEDEPTVTITITFDEETGELTVTIEVRPPPPPPPESA [r9_1119_TrROS_Hall]	3.72 ± 0.43	3.51 ± 0.54	3.49 ± 0.23

Sequence	folding stability dG unfold [1] [kcal/mol]	folding stability dG unfold [2] [kcal/mol]	folding stability dG unfold [3] [kcal/mol]
SEAEIKIKEVDENGYLVLEIKVPKEEVEKLREKLKELFPNAEIVEVKYDEETGEVTIIVRLPDGKLYEFKSA [r9_1164_TrROS_Hall]	1.06 ± 0.13	1.05 ± 0.099	1.05 ± 0.076
SEDTVTIEVRAFPVKDKNGKPRFYVSIEFGNGPVSYPIPGLPEGMKEGETFTIEIPPENIKKVDISIMPYSA [r9_769_TrROS]	1.97 ± 0.19	2.09 ± 0.1	2.09 ± 0.12
SEEEIEERIKKLAEELGFKVTEIKIEKTDNKLTVTVTITLPNGKKLTFTVTRDKNGKLTFTPEQLKKALKSA [r9_85_TrROS_Hall]	3.21 ± 0.07	3.609 ± 0.022	2.36 ± 0.038
SEEEIVEEPPPETRTLTLELVDPETGELVATITVSPDGTVTLTVRTPDGEEKTITVPEGMSLEEALAAALSA [r9_346_TrROS_Hall]	4.18 ± 0.45	4.39 ± 0.24	3.19 ± 0.21
SEEEYLVIEVEFEVENPEEAREFAERLARELPLDEIESLEVEVEPREVFVEGEPVGPVYRFRVRAVVRPRSA [r9_605_TrMRF]	2.77 ± 0.079	2.98 ± 0.048	2.62 ± 0.069
SEEPVEERDIVVKPGEEVKLELPEEPETVRVYVFNEDGELIEEREFPPGATPEELEGLKLPPGAVVRIVRSA [r9_215_TrROS_Hall]	2.2 ± 0.045	2.54 ± 0.029	1.32 ± 0.036
SEFPESVPVDWVERELTFSSSSKEELEKKIKELLKNIEIEVSYDPKTNKYTLKIKFPSKEKAEKVEELLSSA [r9_764_JUSTAS]	2.96 ± 0.14	3.268 ± 0.026	2.22 ± 0.067
SEKPEFKIVKIEVVEVDEDGKTVKVRVVVEGPDGRLYEVEMTLEELKKLLEELGIDLEDIKPGDVIVIPPSA [r9_1078_TrROS_Hall]	3.58 ± 0.15	3.09 ± 0.073	3.75 ± 0.11
SEKPEVTIKIEVEEREDGYLVVRVEVTFPEDPEKVELTLEMSREEAEELAKKLAEELPGVKVKVEIVELPSA [r9_374_TrROS_Hall]	2.44 ± 0.14	2.4 ± 0.17	2.41 ± 0.17
SEKVKITIEVWRPPGWWYVKIKLPDNGQEITYPFDSAEDFKEQIKKWLGLPPDNVKITDVEVYPMPPDDFSA [r9_909_TrROS]	2.52 ± 0.22	3.14 ± 0.081	1.82 ± 0.11
SELEDMTPEQLRERIRELLEELREERPGEEVEITIEELLERLPGMSREQLAEILGLTEEELENRTITIRASA [r9_525_TrROS_Hall]	2.35 ± 0.14	2.47 ± 0.085	2.08 ± 0.11
SELVEKAAEKGVKEIHIYLSEEQREAILKAADAGVKITIHLPEGATVEELKALPGIKVDKVEVFSPEELKSA [r9_671_TrROS_Hall]	0.0735 ± 0.14	-0.078 ± 0.082	0.273 ± 0.044
SENKPVTVLVNVTKNEDGTYTARVFVFDENGKLLAEEEVEAPLEKAVELVEALKKAYPNAKVVAVFTEGLSA [r9_374_TrMRF]	4.67 ± 0.2	4.81 ± 0.21	3.63 ± 0.23
SENPVLKNRPLPVVGTTERTSVAKPGESLDVKELPSNGIVATTPDGSTVGITVTVDANGNVLSLEIKPDPSA [r9_1195_JUSTAS]	0.164 ± 0.12	0.272 ± 0.069	0.00583 ± 0.068
SENWEPEPITFPDGITIWVMPDYGMIDIIDPDKGTFEMFMIRVDPNGKPEINPLTFKLDPPNGKIKDITPSA [r9_122_TrROS]	0.49 ± 0.26	0.572 ± 0.91	0.657 ± 0.2
SEPLTPEEVEKFAEWIAKELNEEHGKEVKVEVEYHPDDGYFRAEIEIPNGRRIEITFNPEFGQLDIEVEDSA [r9_9_TrROS]	1.71 ± 0.27	2.36 ± 0.062	1.31 ± 0.18
SEPVPVKIEISTSVDSNGNPSVTITVYNEEKVYTNPLNGATILSVDPNKQYIVIENPALGTKLTLSYTLISA [r9_1186_JUSTAS]	2.49 ± 0.093	2.75 ± 0.048	2.07 ± 0.086
SEVEVTVTVTLTRRLPDGREREVTVTLTLRLEFDPELSEEELESPELRKRLEELRREALERARRLAEELASA [r9_237_TrROS_Hall]	> 6	6.52 ± 0.22	4.64 ± 0.18
